Assay results taken from patent US5286847A, “Interleukin-1 muteins, their preparation and method of use to inhibit interleukin-1 activity” (New England Medical Center Hospitals, Inc., priority 1992, dated 1994).

Columns and labels:
[1] = molecular target: T1, IL-1 receptor on EL.4 cells (Mus musculus, UniProt P13504); assay: Equilibrium receptor binding of [35S]-labeled IL-1β peptides to EL.4 cells, Scatchard plot analysis; design: species or system murine; conditions: for receptor affinity compared with wild-type IL-1β (in words): equilibrium binding analyses and competitive binding studies
T1 construct: incubated with EL.4 cells; endogenous in cells; host or cells: EL.4 (murine thymoma)
T1 sequence (P13504 20-576): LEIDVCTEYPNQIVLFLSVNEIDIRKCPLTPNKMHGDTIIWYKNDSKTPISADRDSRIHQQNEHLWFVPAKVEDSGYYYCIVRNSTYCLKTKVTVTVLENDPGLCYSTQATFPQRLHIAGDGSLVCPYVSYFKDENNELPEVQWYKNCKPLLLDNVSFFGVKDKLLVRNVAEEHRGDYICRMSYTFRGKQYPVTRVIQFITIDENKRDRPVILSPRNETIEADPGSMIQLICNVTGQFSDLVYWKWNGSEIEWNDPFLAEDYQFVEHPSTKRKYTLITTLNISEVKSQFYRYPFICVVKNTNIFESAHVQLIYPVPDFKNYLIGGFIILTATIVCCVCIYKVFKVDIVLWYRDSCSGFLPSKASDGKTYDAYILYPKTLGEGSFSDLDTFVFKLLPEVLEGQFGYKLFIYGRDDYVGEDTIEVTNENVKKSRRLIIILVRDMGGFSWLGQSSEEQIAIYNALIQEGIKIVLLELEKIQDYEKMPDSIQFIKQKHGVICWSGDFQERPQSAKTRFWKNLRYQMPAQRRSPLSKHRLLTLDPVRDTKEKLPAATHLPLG
Method: The conversion of IL-1 molecules by mutation of specific residues gives muteins having utility as IL-1 biological activity inhibitors. Specifically disclosed is the preparation and testing of human IL-1β.
The receptor binding characteristics of the Arg127 →Gly127mutant protein were determined by Scatchard analysis and by sodium dodecyl sulfate (SDS) polyacrylamide gel analysis of specifically bound proteins (Dower et al., 1986; Jobling et al., 1988; Mosley et al., J. Biol. Chem. 1987). For the polyacrylamide gel analysis, IL-1β proteins were labeled with [^35 S]methionine during in vitro translation before cell surface receptor binding assays using EL4 6.1 C10 murine thymoma cells (Jobling et al., 1988; Mosley et al., Proc. Natl. Acad. Sci. USA, 1987; MacDonald, H. R., R. K. Lees, C. Bron [1985] J. Immunol. 135:3944) (FIG. 3). […] Equilibrium binding experiments and Scatchard plot data (Table 1) confirmed the equivalence of binding constants.

[2] = test system: helper T-cells (D10.G4.1); assay: Biological activity: [3H]thymidine incorporation by helper T-cells (D10.G4.1) with diluted translation mixtures; type: cell-based; conditions: FIG. 2
Method: FIG. 2. Biological activities of IL-1β proteins. Reticulocyte translation mixtures were incubated and assayed in the thymocyte co-stimulation assay as described previously (Jobling et al., 1988). The results are presented as [^3 H]thymidine incorporation (counts/minute)at various final dilutions of the translation mixtures.
The IL-1β proteins were synthesized by in vitro translation of SP6 or T7 messenger RNAs. In vitro protein synthesis was performed as described previously (Jobling et al., 1988; Jobling, S. A., and L. Gehrke [1987] Nature 325:622-625). The translational efficiency of all construct mRNAs was increased by replacing the untranslated leader sequence of the IL-1β mRNA with that of alfalfa mosaic virus RNA (Jobling et al., 1988; Jobling et al., 1987). All IL-1β protein translation products contain the amino-terminal methionine residue added during initiation of protein synthesis. The biological activity of the translation products was tested by quantitating [^3 H]thymidine incorporation by helper T-cells (D10.G4.1) (Kaye, Y., S. Porcelli, J. Tite, B. Jones, C. A. Janeway [1983] J. Exp. Med. 158:836-856) incubated in the presence of diluted translation reaction mixtures (FIG. 2).

[3] = molecular target: T2, EL4 cell receptors (IL-1 receptor) (Mus musculus, UniProt P13504); assay: Competitive receptor binding against [35S]-labeled mature IL-1β on EL.4 thymoma cells; design: species or system murine; conditions: 37° C., concentrations up to a five-fold molar excess, FIG. 4
T2 construct: incubating EL.4 thymoma cells; endogenous in cells; host or cells: EL.4 thymoma cells
T2 sequence (P13504 20-576): T1 sequence (P13504 20-576)
Method: FIG. 4. Competitive receptor binding. A constant amount of radioactive mature IL-1β protein was added to 1.9×10^7 EL.4 cells in binding medium. The results are presented as a percentage of radioactive IL-1β which bound specifically in the absence of competitor. The 100% value represents approximately 30,000 cpm.
As a further analysis of the receptor binding properties, nonradioactive proteins were used to complete with [^35 S]-labeled wild-type mature IL-1β for binding to EL4 cell receptors (FIG. 4). Competitive receptor binding was performed by incubating EL.4 thymoma cells at 37° C. in the presence of a constant level of [^35 S]-labeled mature IL-1β protein and increasing concentrations of non-radioactiveIL-1β competitor translation products. […] The amount of IL-1β protein synthesized by in vitro translation was determined by specific radioactivity using a radioactive IL-1β protein standard which was quantitated by radioimmune assay. […] The cells were solubilized in lysis buffer (50 mM sodium phosphate, pH 7; 10 mM ethylenediaminetetraacetic acid (EDTA); 0.1% TRITON™ X-100; 0.1% sarkosyl; 10 mM β-mercaptoethanol) before quantitation of bound radioactivity by liquid scintillation counting. […]

[4] = molecular target: T3, cell surface receptor of EL4 6.1 C10 murine thymoma cells (Mus musculus, UniProt P13504); assay: SDS polyacrylamide gel analysis of specifically bound [35S]-labeled IL-1β proteins; type: binding; conditions: FIG. 3
T3 construct: endogenous in cells; host or cells: EL4 6.1 C10 murine thymoma cells
T3 sequence (P13504 20-576): T1 sequence (P13504 20-576)
Method: FIG. 3. Analysis of receptor binding. [^35 S]-labeled IL-1β proteins were incubated at 4° C. with murine EL.4 cells in the absence (-) or presence (+) or nonradioactive competitor recombinant IL-1β protein. Following incubation, the cells were sedimented through silicone oil as described previously (Jobling et al., 1988). The IL-1β proteins are identified at the top of the figure by numbers corresponding to amino acid positions. IL1(1-269) is proIL-1β, while IL1(117-269) corresponds to the mature IL-1β protein. The "native" and "Gly127 " notations at the bottom of the figure refer to the wild-type mature protein (Arg127) and the Arg127 →Gly127 mutein, respectively.
The receptor binding characteristics of the Arg127 →Gly127mutant protein were determined by Scatchard analysis and by sodium dodecyl sulfate (SDS) polyacrylamide gel analysis of specifically bound proteins (Dower et al., 1986; Jobling et al., 1988; Mosley et al., J. Biol. Chem. 1987). For the polyacrylamide gel analysis, IL-1β proteins were labeled with [^35 S]methionine during in vitro translation before cell surface receptor binding assays using EL4 6.1 C10 murine thymoma cells (Jobling et al., 1988; Mosley et al., Proc. Natl. Acad. Sci. USA, 1987; MacDonald, H. R., R. K. Lees, C. Bron [1985] J. Immunol. 135:3944) (FIG. 3). […]

[5] = molecular target: T1, IL-1 receptor on EL.4 cells; conditions: Jobling et al., 1988; cited from earlier work
[6] = literature (Huang et al. 1987; Jobling et al. 1988); cited from earlier work

Substance	Relative binding (receptor binding affinity in relation to mature wild-type IL-1β = 100%) ([1]; EL.4 cells, 4° C.)	receptor affinity compared with wild-type IL-1β (in words) ([1]; listed as Arg127 →Gly127 mutant form of IL-1β)	receptor affinity compared with wild-type IL-1β (in words) ([1]; listed as Arg127 →Gly127 mutant protein)	biological activity (half maximal), fold less than wild-type mature IL-1β [2]	biological activity relative to that induced by mature IL-1β [2]	half maximal biological activity compared with proIL-1β [2]	competition with [35S]-labeled wild-type mature IL-1β for binding (in words) [3]	receptor binding properties by intensity of bound protein bands, compared with native mature IL-1β [4]	affinity for receptor, fold less than that of mature IL-1β [5]	biological activity (in words) [6]
Arg127 →Gly127 mutant: human mature IL-1β mutein made by site-directed mutagenesis of the IL-1β cDNA converting Arg127 to Gly127	107%	equal affinity	indistinguishable from that of the wild-type IL-1β protein	at least 100 fold	1%	greater than that of proIL-1β	reproducibly competed more effectively than the wild-type mature IL-1β	similar		
proIL-1β: human IL-1β 31,000 dalton precursor protein, 269 amino acids							competed minimally		30 fold	relatively low, but distinct biological activity
